Source: patent publication US7071300 (dated 2006)

What was measured:
IGF-1 [1] = molecular target: T1, IGF-1 (human, UniProt P05019); experiment: competition, IGF-1 phage binding to IGFBP-1
IGF-1 [2] = molecular target: T1, IGF-1; experiment: competition, IGF-1 phage binding to IGFBP-3
IGF-1 [3] = molecular target: T1, IGF-1; experiment: competition, 125I-IGF-1 binding to MCF-7 cells

T1 sequence (P05019 49-118): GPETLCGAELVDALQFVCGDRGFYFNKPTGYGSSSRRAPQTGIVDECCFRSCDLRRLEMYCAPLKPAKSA

IC50 (IGF-1 [1]) | IC50 (IGF-1 [2]) | IC50 (IGF-1 [3]) | Binder
1.4 µM | 2.93 µM | 5.12 µM | RNCFESVAALRRCMYG [F1-1]
15.5 µM | 9.2 µM | 15.3 µM | MDCLASVEALKWCMYG [F1-2]
11.7 µM | 12.8 µM | 45.7 µM | FECLTSVEALRGCMYG [F1-3]
